The target of the assay is microtubules assembled from fluorescein-modified bovine brain tubulin (α-/β-tubulin heterodimers) (bovine). Put plainly: cell-based or functional assay.

This is an account of results in patent US20070059727A1.

In turn, “Glutathione S-Transferase (GST)-tagged γ-Tubulin fusion protein (from UniProt P23258 1-451)” registered an average MT length after 5 min of polymerization (MTs on GST-γ-tubulin-functionalized gold pads against MTs grown in solution) of 1.68 micron and an average MT length after 10 min of polymerization (MTs on GST-γ-tubulin-functionalized gold pads against MTs grown in solution) of 3.47 micron.
